Experimental data published in patent US20180312557A1, “Leg1 Protein, Leg1 Gene, and Uses and Drugs thereof” (ZHEJIANG UNIVERSITY, priority 2016, published 2018).

What was measured:
[1] = test system: Akt phosphorylation of the HepG2 cells; experiment: Akt phosphorylation of HepG2 cells incubated with recombinant mLeg1-Re, alone or with wild-type mLeg1; type: cell-based, human
Description: 23.3 The extracted recombinant protein mLeg1-Re and the wild type mLeg1 protein were used to incubate the HepG2 cells, and then the Akt phosphorylation level of the HepG2 cell was detected. As to the details, reference can be made to step 18.2.2.
The partially purified wild-type mLeg1 protein (50 ng) was mixed with excess mLeg1-Re protein (500 ng) for 10 minutes, and then used to incubate HepG2 cell for 10 minutes, and then the Akt phosphorylation level was detected in these cells. […] It is highly likely attributed to the fact that the mLeg1-Re protein is also capable of competitively binding to the EGFR, thereby blocking the ability of the wild-type mLeg1 to bind to the EGFR and activate downstream Akt.

[2] = mLeg1-Re protein in liver of mLeg1Δ/Δ mice after intragastric administration (co-immunoprecipitation); type: in vivo, mouse; details: two hours after the intragastric administration
Source text: (§1) In order to further verify this hypothesis, the inventors administered the mLeg1-Re protein to the mLeg1^Δ/Δ mice by intragastric administration, and detected, by the method of co-immunoprecipitation, whether the mLeg1-Re protein could reach the liver and bind to EGFR in the liver.

[3] = Body weight increase of wild type mice on high-fat diet with intragastric mLeg1-Re; type: in vivo, mouse; details: 20 μg intragastric every day, one month
Description: 23.4 10-weeks old wild type mice having the similar body weight (t1) were randomly divided into 3 groups with 3 to 4 mice in each group. The wild type mice were fed with high-fat diet and intragrastric administration with 20 μg of mLeg1-Re protein every day, which served as mLeg1-Re administration experimental group. Another group of wild type mice of the same age were fed with the same high-fat diet and intragrastric administration with the same amount of bovine serum albumin (BSA) every day, which served as BSA administration control group. The left group of wild type mice at the same age were fed with the same standard chow diet, which served as another control group. One month later, the body weight (t2) of these mice were measured, and the results were represented by increased body weight […]. The experiment was repeated twice, and the final body weight changes (i.e., increased body weight) were averaged.

[4] = molecular target: T1, EGFR (Mus musculus, UniProt Q01279); experiment: EGFR pulled down with mLeg1-Re from liver after intragastric administration (co-immunoprecipitation); type: in vivo; details: liver of mLeg1Δ/Δ mice, two hours after the intragastric administration
T1 construct: from tissue; host or cells: liver of mLeg1^Δ/Δ mice
Source text: as §1

B1: mLeg1-Re protein: modification-defective recombinant mLeg1 protein expressed in an Escherichia coli expression system (protein)
chain: EVSDSSDPYPPLWEDSPEQLSDYMMEDGNYIINPWVYTDRMGMYRILLEETAMYFAKYGPENEQNLLWGLPLQFGWQYQSGRLADPTGMTDCGNELNESLCVSVDSWWADINYYLSVIPFLAAVDSGITGISPNQITILPPPKDQMRFCYNVSDCQSAVPGTMNRWRDFFQYMQLNSSDFDGLLNYLWEAHASSLDYPTSAFGDRYNFYSEKEANFEENWAIAVNYLAAARLPTTQNRTYSFQRGLPPRVLVDTDIAPFIPDFTPLQNEVLVSLKLLGDTDRNSGSLSLTLWENLMSTKLARTLFLKAFEEFLATSS
modifications: left off: small tags and cut ends
notes: modification-defective recombinant mLeg1 protein expressed in an Escherichia coli expression system
ability to induce Akt phosphorylation ([1]; HepG2 incubated with mLeg1-Re alone): lost the ability to induce Akt phosphorylation | ability of the mLeg1 protein to activate Akt ([1]; HepG2 incubated with mLeg1-Re for 10 minutes first, then mLeg1 added): completely inhibited | inhibition of mLeg1-induced Akt phosphorylation ([1]; mLeg1 (50 ng) mixed with excess mLeg1-Re (500 ng) for 10 minutes, then HepG2 10 minutes): cannot inhibit the functions of the mLeg1 protein | mLeg1-Re protein in the liver [2]: could be detected in the liver | body weight increase compared with BSA control group [3]: significantly lower | body weight increase compared with mice fed standard chow diet [3]: almost the same as that of the mice fed with standard chow diet | EGFR in the protein pulled down by the mLeg1 antibody [4]: significant EGFR protein level could be detected
